Laboratory results from paper PMC9943670, “The homeodomain of Oct4 is a dimeric binder of methylated CpG elements”.

Columns and labels:
Brn2 POU [1] = molecular target: T1, Brn2 POU (mouse, UniProt P31360); test: EMSA (single-tube dual color); Cy5-MORE with FAM-CpGpal; preferred, dimer; EMSA buffer composition not given; 1 h at RT; gels in 1x TG, 200 V, 4 C; probes annealed in 20 mM Tris-HCl pH 8.0, 50 mM MgCl2, 50 mM KCl; protein stock 10 mM HEPES pH 7.0, 100 mM NaCl, 10% glycerol, 0.5 mM TCEP; settings: protein: recombinant; tags: tag cleaved by TEV (leaves G); label: 5' Cy5 on one strand; blunt; self-complementary strand, 2 copies
T1 sequence: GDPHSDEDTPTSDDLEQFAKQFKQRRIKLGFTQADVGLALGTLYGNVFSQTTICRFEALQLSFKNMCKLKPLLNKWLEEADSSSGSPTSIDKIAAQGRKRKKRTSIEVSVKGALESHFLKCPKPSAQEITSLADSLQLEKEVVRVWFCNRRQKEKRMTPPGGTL

Brn2 POUHD [2] = molecular target: T2, Brn2 POUHD (mouse, UniProt P31360); test: EMSA; 50 nM DNA; dimer with strongly reduced cooperativity; EMSA buffer composition not given; 1 h at RT; gels in 1x TG, 200 V, 4 C; probes annealed in 20 mM Tris-HCl pH 8.0, 50 mM MgCl2, 50 mM KCl; protein stock 10 mM HEPES pH 7.0, 100 mM NaCl, 10% glycerol, 0.5 mM TCEP; settings: protein: recombinant, tags: tag cleaved by TEV (leaves G), blunt
T2 sequence: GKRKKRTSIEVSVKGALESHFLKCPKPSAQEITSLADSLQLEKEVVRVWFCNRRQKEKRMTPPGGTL

Oct4 POU [3] = molecular target: T3, Oct4 POU (mouse, UniProt P20263); test: EMSA (single-tube dual color); FAM-CpGpal with Cy5-MORE; dimerizes more effectively on CpGpal than Brn2 does; EMSA buffer composition not given; 1 h at RT; gels in 1x TG, 200 V, 4 C; probes annealed in 20 mM Tris-HCl pH 8.0, 50 mM MgCl2, 50 mM KCl; protein stock 10 mM HEPES pH 7.0, 100 mM NaCl, 10% glycerol, 0.5 mM TCEP; settings: protein: recombinant; Methods: TEV-cleaved tag; label: 5' Cy5 or FAM on forward strand; blunt
T3 sequence (P20263 other isoform, or with tags, fused parts or gaps): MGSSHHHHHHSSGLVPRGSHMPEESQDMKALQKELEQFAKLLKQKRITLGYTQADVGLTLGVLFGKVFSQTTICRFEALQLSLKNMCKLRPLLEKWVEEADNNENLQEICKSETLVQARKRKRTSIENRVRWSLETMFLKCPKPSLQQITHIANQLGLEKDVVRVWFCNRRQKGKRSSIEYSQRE

Oct4 POUHD [4] = molecular target: T4, Oct4 POUHD (mouse, UniProt P20263); test: EMSA; 50 nM DNA; homodimer more efficient than full POU; EMSA buffer composition not given; 1 h at RT; gels in 1x TG, 200 V, 4 C; probes annealed in 20 mM Tris-HCl pH 8.0, 50 mM MgCl2, 50 mM KCl; protein stock 10 mM HEPES pH 7.0, 100 mM NaCl, 10% glycerol, 0.5 mM TCEP; settings: protein: recombinant; tags: tag cleaved by TEV (leaves G); chain copies: 2; label: 5' Cy5 or FAM on forward strand; blunt
T4 sequence (P20263 other isoform, or with tags, fused parts or gaps): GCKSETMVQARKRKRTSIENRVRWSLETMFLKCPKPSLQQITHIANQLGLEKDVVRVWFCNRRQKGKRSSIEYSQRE

Oct4 POU [5] = molecular target: T3, Oct4 POU; test: EMSA; 50 nM DNA; homodimer, 5hmC no effect; EMSA buffer composition not given; 1 h at RT; gels in 1x TG, 200 V, 4 C; probes annealed in 20 mM Tris-HCl pH 8.0, 50 mM MgCl2, 50 mM KCl; protein stock 10 mM HEPES pH 7.0, 100 mM NaCl, 10% glycerol, 0.5 mM TCEP; settings: protein: recombinant; Methods: TEV-cleaved tag; label: 5' Cy5 on forward strand; blunt
Brn2 POUS linker = molecular target: T5, Brn2 POUS linker (mouse, UniProt P31360); test: EMSA; 50 nM DNA; EMSA buffer composition not given; 1 h at RT; gels in 1x TG, 200 V, 4 C; probes annealed in 20 mM Tris-HCl pH 8.0, 50 mM MgCl2, 50 mM KCl; protein stock 10 mM HEPES pH 7.0, 100 mM NaCl, 10% glycerol, 0.5 mM TCEP; settings: protein: recombinant; tags: tag cleaved by TEV (leaves G); label: 5' Cy5 on forward strand; blunt
T5 sequence: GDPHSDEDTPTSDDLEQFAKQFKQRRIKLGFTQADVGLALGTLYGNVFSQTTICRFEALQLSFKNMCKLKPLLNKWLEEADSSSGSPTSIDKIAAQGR

Brn2 POU [6] = molecular target: T1, Brn2 POU; test: EMSA; 1 nM DNA, 0.4-100 nM protein; nanomolar Kd, value only in figure; monomer; EMSA buffer composition not given; 1 h at RT; gels in 1x TG, 200 V, 4 C; probes annealed in 20 mM Tris-HCl pH 8.0, 50 mM MgCl2, 50 mM KCl; protein stock 10 mM HEPES pH 7.0, 100 mM NaCl, 10% glycerol, 0.5 mM TCEP; settings: protein: recombinant; tags: tag cleaved by TEV (leaves G); label: 5' Cy5 on forward strand; blunt
Oct4 POU [7] = molecular target: T3, Oct4 POU; test: EMSA; 1 nM DNA, 1-500 nM protein; nanomolar Kd, value only in figure; monomer; EMSA buffer composition not given; 1 h at RT; gels in 1x TG, 200 V, 4 C; probes annealed in 20 mM Tris-HCl pH 8.0, 50 mM MgCl2, 50 mM KCl; protein stock 10 mM HEPES pH 7.0, 100 mM NaCl, 10% glycerol, 0.5 mM TCEP; settings: protein: recombinant; Methods: TEV-cleaved tag; label: 5' Cy5 on forward strand; blunt
Brn2 POUHD [8] = molecular target: T2, Brn2 POUHD; test: EMSA; 50 nM DNA; high affinity, no dimer detectable; EMSA buffer composition not given; 1 h at RT; gels in 1x TG, 200 V, 4 C; probes annealed in 20 mM Tris-HCl pH 8.0, 50 mM MgCl2, 50 mM KCl; protein stock 10 mM HEPES pH 7.0, 100 mM NaCl, 10% glycerol, 0.5 mM TCEP; settings: protein: recombinant; tags: tag cleaved by TEV (leaves G); label: 5' Cy5 on forward strand; blunt
Oct4 POUHD [9] = molecular target: T4, Oct4 POUHD; test: EMSA; 50 nM DNA; high affinity, homodimer also forms; EMSA buffer composition not given; 1 h at RT; gels in 1x TG, 200 V, 4 C; probes annealed in 20 mM Tris-HCl pH 8.0, 50 mM MgCl2, 50 mM KCl; protein stock 10 mM HEPES pH 7.0, 100 mM NaCl, 10% glycerol, 0.5 mM TCEP; settings: protein: recombinant; tags: tag cleaved by TEV (leaves G); chain copies: 2; label: 5' Cy5 on forward strand; blunt
Oct4 POUHD [10] = molecular target: T4, Oct4 POUHD; test: EMSA; 50 nM DNA; homodimer, minor effect of methylation; EMSA buffer composition not given; 1 h at RT; gels in 1x TG, 200 V, 4 C; probes annealed in 20 mM Tris-HCl pH 8.0, 50 mM MgCl2, 50 mM KCl; protein stock 10 mM HEPES pH 7.0, 100 mM NaCl, 10% glycerol, 0.5 mM TCEP; settings: protein: recombinant; tags: tag cleaved by TEV (leaves G); chain copies: 2; label: 5' Cy5 on forward strand; blunt
Oct4 POU [11] = molecular target: T3, Oct4 POU; test: EMSA; 50 nM DNA, 25-800 nM protein; cooperative homodimer; EMSA buffer composition not given; 1 h at RT; gels in 1x TG, 200 V, 4 C; probes annealed in 20 mM Tris-HCl pH 8.0, 50 mM MgCl2, 50 mM KCl; protein stock 10 mM HEPES pH 7.0, 100 mM NaCl, 10% glycerol, 0.5 mM TCEP; settings: protein: recombinant; Methods: TEV-cleaved tag; label: 5' Cy5 on forward strand; blunt
Brn2 POU [12] = molecular target: T1, Brn2 POU; test: X-ray crystallography; 1.89 A; homodimer; 0.2 M MgCl2, pH 5.0; EMSA buffer composition not given; 1 h at RT; gels in 1x TG, 200 V, 4 C; probes annealed in 20 mM Tris-HCl pH 8.0, 50 mM MgCl2, 50 mM KCl; protein stock 10 mM HEPES pH 7.0, 100 mM NaCl, 10% glycerol, 0.5 mM TCEP; settings: protein: recombinant; tags: tag cleaved by TEV (leaves G); blunt; self-complementary strand, 2 copies

B1: MORE (dsDNA)
DNA 1: TCCTCATGCATATGCATGAGGA
DNA 2: TCCTCATGCATATGCATGAGGA
Brn2 POU [1]
  binding result: binds

B2: CpGpal fully methylated (dsDNA)
DNA 1: GCCGCCTTATGCGCATAAGCCGCCGC
DNA 2: GCGGCGGCTTATGCGCATAAGGCGGC
modifications: 5mC at the central CpG (ATG5mCGCAT), both strands
Brn2 POUHD [2]; label: 5' Cy5 or FAM on forward strand
  binding result: binds
Oct4 POU [3]
  binding result: binds
Oct4 POUHD [4]
  binding result: binds

B3: CpGpal 5hmC (dsDNA)
DNA 1: GCCGCCTTATGCGCATAAGCCGCCGC
DNA 2: GCGGCGGCTTATGCGCATAAGGCGGC
modifications: 5hmC at the central CpG; strands carrying the mark not given
Oct4 POU [5]
  binding result: binds

B4: Octamer (dsDNA)
DNA 1: GGCGGCGGATGCAAATCGGCGGCGG
DNA 2: CCGCCGCCGATTTGCATCCGCCGCC
Brn2 POUS linker
  binding result: no binding
Brn2 POU [6]
  binding result: binds
Oct4 POU [7]
  binding result: binds
Brn2 POUHD [8]
  binding result: binds
Oct4 POUHD [9]
  binding result: binds

B5: CpGpal unmethylated (dsDNA)
DNA 1: GCCGCCTTATGCGCATAAGCCGCCGC
DNA 2: GCGGCGGCTTATGCGCATAAGGCGGC
Oct4 POUHD [10]
  binding result: binds
Brn2 POUHD [2]; label: 5' Cy5 on forward strand
  binding result: binds
Oct4 POU [11]
  binding result: binds

B6: MORE (crystal) (dsDNA)
DNA 1: TCCTCATGCATATGCATGAGGA
DNA 2: TCCTCATGCATATGCATGAGGA
Brn2 POU [12]
  binding result: binds
